± gives the standard deviation of the averaged measurements.
System: ATP
Test: switch fluorescence ratio, 500 uM ATP over buffer (Cy3 cluster intensity, sum of 5 cycles each) (fold (ratio)); higher = stronger signal-on switching upon ATP binding; sequences stand for … in TCGTCGGCAGCGTCAGATGTGTATAAGAGACAGTTTTTTTTTTTTTTTTTTTTTTTTT…TC
Conditions: aptamer strand: ATP DNA aptamer (quencher-CACCTGGGGGAGTATTGCGGAGGAAGG + anchor), 100 nM annealed; ATP concentration: 500 uM
Method in brief: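 Switching-strand clusters labelled with Cy3 on a modified Illumina MiSeq flow-cell were annealed to 100 nM quencher-labelled ATP aptamer, imaged in selection buffer, and re-imaged after 15 min with 500 uM ATP at 22 °C. This was done over five cycles with NaOH stripping and re-annealing in between. The fluorescence ratio is summed target-cycle over summed buffer-cycle Cy3 intensity per cluster, averaged per switch-domain sequence, excluding clusters outside 100-1000 RFU.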
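Note: ATP exposure 15 min at 22 °C before imaging.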

For AGACGAGACT, the switch fluorescence ratio was 1.08 ± 0.03.
For AGACGAGGTA, the switch fluorescence ratio was 1.03 ± 0.05.
With AGACGAGTCT the switch fluorescence ratio was 0.974 ± 0.03.
For AGACGGTAGC, the switch fluorescence ratio was 1.01 ± 0.026.
With AGACGTTATT the switch fluorescence ratio was 1.15 ± 0.1.
Sequence AGACTCCACC has a switch fluorescence ratio of 1.398 ± 0.0081.
With AGACTGGGGG the switch fluorescence ratio was 0.997 ± 0.033.
With AGACTTTAAA the switch fluorescence ratio was 1.01 ± 0.019.
AGAGACTATT showed a switch fluorescence ratio of 1.01 ± 0.0095.
Sequence AGAGAGACGT has a switch fluorescence ratio of 0.995 ± 0.029.
AGAGAGGGAA gave a switch fluorescence ratio of 1 ± 0.025.
Work on AGAGAGGTTA yielded a switch fluorescence ratio of 1.02 ± 0.014.
With AGAGAGTTTT the switch fluorescence ratio was 0.984 ± 0.021.
Sequence AGAGATATGA has a switch fluorescence ratio of 1.0142 ± 0.00072.
AGAGATGCTT was tested, and the switch fluorescence ratio was 0.99 ± 0.032.
With AGAGCAGGTT the switch fluorescence ratio was 1.02 ± 0.014.
With AGAGCATTGA the switch fluorescence ratio was 1.013 ± 0.007.
Work on AGAGCGCGCC yielded a switch fluorescence ratio of 1.02 ± 0.05.
Sequence AGAGCTGTTG has a switch fluorescence ratio of 1.01 ± 0.019.
AGAGGAAAAC showed a switch fluorescence ratio of 1.08 ± 0.023.
AGAGGACTTT gave a switch fluorescence ratio of 1.001 ± 0.0029.
AGAGGAGCGG was tested, and the switch fluorescence ratio was 1.02 ± 0.013.
Sequence AGAGGAGTTG has a switch fluorescence ratio of 1.03 ± 0.046.
Work on AGAGGATGGG yielded a switch fluorescence ratio of 1 ± 0.034.
AGAGGCCTGT was tested, and the switch fluorescence ratio was 1.01 ± 0.0086.
AGAGGGAAGA was tested, and the switch fluorescence ratio was 1.01 ± 0.037.
AGAGGGCTGT showed a switch fluorescence ratio of 1.01 ± 0.15.
Work on AGAGGGGCAG yielded a switch fluorescence ratio of 0.961 ± 0.016.
For AGAGGGGCGT, the switch fluorescence ratio was 0.999 ± 0.033.
In the case of AGAGGGGGAA, the switch fluorescence ratio is reported as 0.978 ± 0.014.
Sequence AGAGGGGGAG has a switch fluorescence ratio of 0.979 ± 0.027.
With AGAGGGTCCA the switch fluorescence ratio was 0.962 ± 0.021.
Sequence AGAGGGTTAA has a switch fluorescence ratio of 0.988 ± 0.031.
AGAGGTAACT showed a switch fluorescence ratio of 0.993 ± 0.014.
Sequence AGAGGTAAGC has a switch fluorescence ratio of 1.02 ± 0.019.
In the case of AGAGGTCTAC, the switch fluorescence ratio is reported as 0.982 ± 0.031.
For AGAGGTGCAT, the switch fluorescence ratio was 1.02 ± 0.017.
Work on AGAGTAATCG yielded a switch fluorescence ratio of 0.983 ± 0.07.
AGAGTACGTA was tested, and the switch fluorescence ratio was 1.041 ± 0.0065.
Work on AGAGTAGAGT yielded a switch fluorescence ratio of 0.9995 ± 0.0088.
AGAGTAGGGG was tested, and the switch fluorescence ratio was 0.979 ± 0.029.
In the case of AGAGTATGG, the switch fluorescence ratio is reported as 0.965 ± 0.035.
For AGAGTATTTG, the switch fluorescence ratio was 0.994 ± 0.014.
For AGAGTCGTTT, the switch fluorescence ratio was 0.9853 ± 0.0046.
AGAGTGAGAG gave a switch fluorescence ratio of 0.9931 ± 0.0056.
Work on AGAGTGAGGG yielded a switch fluorescence ratio of 0.977 ± 0.0012.
AGAGTGAGTT showed a switch fluorescence ratio of 0.9533 ± 0.0045.
AGAGTGATCT gave a switch fluorescence ratio of 0.98437 ± 0.00057.
Work on AGAGTGATGT yielded a switch fluorescence ratio of 1 ± 0.041.
For AGAGTGGACA, the switch fluorescence ratio was 1 ± 0.042.

Source: the supplement of paper PMC10126150
